From article PMC12302650

Assays:
[1] = target: GTP-tubulin (biotinylated α/β-tubulin heterodimer with GTP-bound β-tubulin) (UniProt Q71U36); assay: pull-down; supernatant depletion at equilibrium; varying concentrations of biotinylated GTP-tubulin on streptavidin-coated magnetic beads; BuGZ construct (or mEGFP control) in solution, BuGZ 1.19 μM; 4 °C; nocodazole present; depletion from the supernatant measured by immunoblotting
[2] = target: GDP-tubulin (biotinylated α/β-tubulin heterodimer with GDP-bound β-tubulin) (UniProt Q71U36); assay: pull-down; supernatant depletion at equilibrium, same assay as for GTP-tubulin but with bead-bound GDP-tubulin; BuGZ construct (or mEGFP control) in solution; fit with Equation S2 for wild-type BuGZ
[3] = target: GDP-tubulin (biotinylated α/β-tubulin heterodimer with GDP-bound β-tubulin) (UniProt Q71U36)

## BuGZ-ΔGLEBS (from UniProt Q7ZXV8 1-452) (natural protein)
[1]
  Kd: 408 nM
[2]
  Kd: 54.2 nM
[3]
  GTP α-32P incorporation into GDP-tubulin at equilibrium, increase relative to controls: 57.4%
